Patent publication US20170210824A1 (SALK INSTITUTE FOR BIOLOGICAL STUDIES, published 2017)
*1 amine or outer side, *2 acyl side, *3 side chain or, on linkers, in order; H or OH if unused. Where no end group is shown, it is not given here. [ ]: non-standard residue; d: D form. 3‑pTza = 3-phosphoryltriazolylalanine, non-hydrolysable phosphonate triazole analogue of 3-phosphohistidine, O=C([C@H](Cn1cc(P(=O)(O)O)nn1)N[*:1])[*:2]; pY = N[C@@H](Cc1ccc(OP(=O)(O)O)cc1)C(=O)O

T1: FAK pY397 peptide (AVSVSETDDpYAEIIDEEDTYT) (phosphotyrosine at position 10 (pY397))
T1 construct: also called FAK pTyr peptide
T1 peptide: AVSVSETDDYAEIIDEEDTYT

T2: Nck Y105 peptide (CGERLYDLNMPAYVK)
T2 construct: also called unphosphorylated Nck peptide
T2 peptide: CGERLYDLNMPAYVK

T3: Eck (Ephrin A2) pY588 peptide (CLKPLKTpYVD)
T3 construct: also called Eck/EphA2 pTyr peptide
T3 peptide: CLKPLKT[pY]VD

T4: Nck pY105 peptide (CGERLpYDLNMPAYVK)
T4 construct: also called pTyr (NCK) peptide; pTyr peptide (Nck pY105)
T4 peptide: CGERL[pY]DLNMPAYVK

T5: Eck (Ephrin A2) Y588 peptide (CLKPLKTYVD)
T5 construct: also called unphosphorylated Eck peptide
T5 peptide: CLKPLKTYVD

T6: Peptide-2C (PGAM H11, 3-pTza) (mammalian, N-terminus assumed; SMILES …)
T6 construct: also called VLIR-3-pTza-GESA; PGAM peptide
T6 peptide: VLIR[3‑pTza]GESA-NH2

T7: Peptide-4C (Histone H4 H18, 3-pTza) (mammalian, N-terminus assumed; SMILES …)
T7 construct: also called GAKR-3-pTza-RKVL
T7 peptide: GAKR[3‑pTza]RKVL-NH2

T8: Peptide-1C (ACLY-like H760, 3-pTza) (N-terminus assumed; SMILES C[C@H](N)C(=O)NCC(=O)N[C@@H](C)C(=O)NCC(=O)N[C@@H](Cn1cc(P(=O)(O)O)nn1)C(=O)N[C@@H](C)C(=O)NCC(=O)N[C@@H](C)C(=O)NCC(N)=O)
T8 construct: also called AGAG-3-pTza-AGAG; A/G motif peptide (based on ACLY)
T8 peptide: AGAG[3‑pTza]AGAG-NH2

T9: Peptide-3C (NME1 H118, 3-pTza) (mammalian, N-terminus assumed; SMILES …)
T9 construct: also called RNII-3-pTza-GSDS
T9 peptide: RNII[3‑pTza]GSDS-NH2

T10: ACLY (ATP-citrate lyase), 3-pHis on H760 (mammalian, UniProt P53396 1-1101, 3-phosphohistidine at H760)
T10 sequence (looked up): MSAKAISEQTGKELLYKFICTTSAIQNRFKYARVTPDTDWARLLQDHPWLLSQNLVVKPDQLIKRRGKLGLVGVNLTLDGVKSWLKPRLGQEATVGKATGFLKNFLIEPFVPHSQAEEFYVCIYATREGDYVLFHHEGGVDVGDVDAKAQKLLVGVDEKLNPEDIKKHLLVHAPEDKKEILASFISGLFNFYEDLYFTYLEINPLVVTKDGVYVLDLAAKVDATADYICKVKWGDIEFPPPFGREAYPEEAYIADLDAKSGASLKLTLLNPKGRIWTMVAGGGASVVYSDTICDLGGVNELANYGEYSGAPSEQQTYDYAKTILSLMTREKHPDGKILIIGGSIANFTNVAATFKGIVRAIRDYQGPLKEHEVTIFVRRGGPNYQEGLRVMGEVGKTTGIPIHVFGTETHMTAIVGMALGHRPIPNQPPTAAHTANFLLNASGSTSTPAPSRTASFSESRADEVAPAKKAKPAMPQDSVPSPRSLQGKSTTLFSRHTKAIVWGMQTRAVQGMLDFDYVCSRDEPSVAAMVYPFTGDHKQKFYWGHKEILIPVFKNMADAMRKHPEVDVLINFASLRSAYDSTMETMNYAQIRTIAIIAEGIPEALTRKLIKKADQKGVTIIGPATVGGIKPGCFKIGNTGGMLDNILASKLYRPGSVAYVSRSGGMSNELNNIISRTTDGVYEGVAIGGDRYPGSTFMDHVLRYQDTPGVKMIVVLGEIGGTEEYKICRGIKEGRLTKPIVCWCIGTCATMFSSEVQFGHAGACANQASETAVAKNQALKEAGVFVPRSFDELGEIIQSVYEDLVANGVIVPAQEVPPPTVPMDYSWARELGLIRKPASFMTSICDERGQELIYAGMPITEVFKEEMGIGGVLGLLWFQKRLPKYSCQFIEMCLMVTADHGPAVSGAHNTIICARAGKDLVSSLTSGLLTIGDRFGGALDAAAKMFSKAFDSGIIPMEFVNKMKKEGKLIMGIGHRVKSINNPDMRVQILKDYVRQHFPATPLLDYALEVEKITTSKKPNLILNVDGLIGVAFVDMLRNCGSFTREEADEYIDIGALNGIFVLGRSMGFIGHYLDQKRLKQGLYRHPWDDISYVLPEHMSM

B1: 3-pHis mAb SC56-2 (antibody, V domains shown)
VH: SVKESEGGLIKPGGILTLTCTASGFSLSSYGFSWVRQAPGKGLEHIGYLHANGRAYYATWAKSRSTITRNTNLNTVTLQLTSLTAADTATYFCAKIGSVSDVAIWGPGTLVTVSS
VL: DPVMTQTPSSTSAAVGGTVTINCQSSESIYNNKNLAWYQQKPGQSPRRLIYSISTLASGVSSRFKGSGSGTQFTLTISDVQCDDAATYYCVGYYYSGGYYYSGSAAYYAFGGGTEVVVKG
notes: Rabbit hybridoma monoclonal IgG; also called SC56s (subclones of MC56)
B2: 3-pHis mAb SC44-8 (antibody, V domains shown)
VH: ESGRGLVQPGGSLTLTCTASGFSIDSYGFSWVRQAPGKGLEHIGYLTAGGRAFYASWAKSRSTITRNTNENTVTLKMTSLTAADTATYFCAKLGSGNPVAIWGPGTLVTVSS
VL: DPVMTPTPSFTSAAVGGTVTINCQSSQSVWRNKNLAWYQQKPGQPPKRLIYAIATLDSGVPSRFSGSGSGTQFTLTISDVQCDDAATYYCVGHYGSENDAYYAFGGGTEVVVKG
notes: Rabbit hybridoma monoclonal IgG; also called SC44s (subclones of MC44)

Columns and labels:
[1] = molecular target: T1, FAK pY397 peptide …; experiment: pTyr peptide dot blot
[2] = molecular target: T2, Nck Y105 peptide (CGERLYDLNMPAYVK); experiment: pTyr peptide dot blot
[3] = molecular target: T3, Eck (Ephrin A2) pY588 peptide …; experiment: pTyr peptide dot blot
[4] = molecular target: T4, Nck pY105 peptide (CGERLpYDLNMPAYVK); experiment: pTyr peptide dot blot
[5] = molecular target: T5, Eck (Ephrin A2) Y588 peptide …; experiment: pTyr peptide dot blot
[6] = molecular target: T6, Peptide-2C (PGAM H11, 3-pTza); experiment: 3-pTza peptide dot blot array
Experimental: (§1) The 3-pHis antibodies bound only the 3-pTza peptides and the 1-pHis antibodies bound only the 1-pTza peptides, regardless of sequence (FIG. 4A). Identical membranes were probed with 1-pHis mAbs as part of our screening process to select mAbs with the broadest sequence recognition (FIG. 4B). […] 3-pHis mAb SC39-4 was able to detect all 3-pTza peptides down to 800 pg; however, binding to the KCa3.1 peptide was relatively poor (100 ng). […] SC44 detected the A/G motif peptide (based on ACLY) and the immunizing peptide library down to 160 pg and 800 pg respectively, confirming its sequence bias.
(§2) pTza peptide dot blot arrays: 1-pTza, 3-pTza or His was incorporated into synthetic peptides of defined sequences from mammalian proteins with mapped pHis sites. The peptides used were as follows: ACLY-like H760 (AGAG-X-AGAG, SEQ ID NO: 62), PGAM H11 (VLIR-X-GESA, SEQ ID NO: 63), NME1 H118 (RNII-X-GSDS, SEQ ID NO: 64), Histone H4 H18 (GAKR-X-RKVL, SEQ ID NO: 65), KCa3.1 H358 (VRLK-X-RKLR, SEQ ID NO: 66) and GNB1 H266 (MTYS-X-DNII, SEQ ID NO: 67) where X=His, 1-pTza or 3-pTza. Peptides were dissolved in water at a stock concentration of 1 mg/ml. 1:5 serial dilutions (500, 100, 20, […] ng/ul) were prepared for each peptide and 1 ul of each dilution was spotted on nitrocellulose membrane and allowed to dry for 1-2 hr at RT. […] Immunoblotting was performed as described above.

[7] = molecular target: T7, Peptide-4C (Histone H4 H18, 3-pTza); experiment: 3-pTza peptide dot blot array
Experimental: as §1, §2

[8] = molecular target: T8, Peptide-1C (ACLY-like H760, 3-pTza); experiment: 3-pTza peptide dot blot array
Experimental: as §1, §2

[9] = molecular target: T9, Peptide-3C (NME1 H118, 3-pTza); experiment: 3-pTza peptide dot blot array
Experimental: as §1, §2

[10] = molecular target: T10, ACLY (ATP-citrate lyase), 3-pHis on H760; experiment: immunoblot of mammalian cell lysates
Experimental: (§3) Immunoblotting with anti-pHis antibodies: In general, immunoblotting with anti-pHis antibodies was performed with modifications to standard procedures to help preserve pHis for detection. Buffers were adjusted to pH 8-9 to stabilize pHis and methods were modified to avoid heating samples. Protein samples were prepared in pH 8.8 sample buffer (5×=10% SDS, 250 mM Tris-HCl, pH 8.8, 0.02% Bromophenol blue, 50% glycerol, 50 mM EDTA, 500 mM DTT) for electrophoresis. Mammalian whole cell lysates were prepared by rinsing 70-100% confluent 10 cm² dishes twice with 5 ml cold TD buffer (TBS −/−, pH 8). Cells were scraped directly into 2× pH 8.8 sample buffer, incubated on ice and a cup horn sonicator was used (3-5×5 sec bursts) to disrupt cells and shear DNA. Lysates were clarified by centrifugation (14,000×g for 5-15 min at 4° C.) and analyzed immediately using freshly prepared Bis-Tris polyacrylamide minigels with a modified, pH 8.8 stacking gel and either 10% or 12.5% resolving gels. Electrophoresis buffer recipes were as follows: Running Buffer: (1×20 L, pH 8.5) 20 g SDS, 60 g Trizma Base, 288 g glycine, dH₂0 to 20 L, Transfer Buffer: (1×4 L, pH 8.5) 56.7 g glycine, 4 g SDS, 12 g Trizma Base, 800 ml MeOH, dH₂0 to 4 L. All electrophoresis steps were performed at 4° C. and samples were resolved at 90-100V for 2-3 hr. […]

[11] = molecular target: T11, mammalian SCS (succinyl-CoA synthetase), 3-pHis on H299 (mammalian, UniProt P53597 41-346, 3-phosphohistidine at H299); experiment: immunoblot of mammalian cell lysates
T11 construct: also called Phospho-SCS
T11 sequence (P53597 41-346): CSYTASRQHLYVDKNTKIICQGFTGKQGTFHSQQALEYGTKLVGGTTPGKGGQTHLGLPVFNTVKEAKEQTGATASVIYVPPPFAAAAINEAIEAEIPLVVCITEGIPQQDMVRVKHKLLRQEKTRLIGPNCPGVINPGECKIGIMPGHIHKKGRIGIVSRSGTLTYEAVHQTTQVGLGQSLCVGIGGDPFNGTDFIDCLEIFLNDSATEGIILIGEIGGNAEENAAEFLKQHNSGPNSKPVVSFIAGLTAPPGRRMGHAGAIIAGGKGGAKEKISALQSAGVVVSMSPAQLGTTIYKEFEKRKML
Experimental: as §3

[12] = molecular target: T12, phospho-PGAM (phosphoglycerate mutase with 3-pHis on H11) (human, UniProt P18669 1-254, 3-phosphohistidine at H11); experiment: immunoblot of HeLa and FLAG-NME1 293 cell lysates
T12 construct: Used both for the purified recombinant protein and for the endogenous protein in 293 cell lysates; also called pPGAM; in vitro phosphorylated PGAM
T12 sequence (P18669 whole entry): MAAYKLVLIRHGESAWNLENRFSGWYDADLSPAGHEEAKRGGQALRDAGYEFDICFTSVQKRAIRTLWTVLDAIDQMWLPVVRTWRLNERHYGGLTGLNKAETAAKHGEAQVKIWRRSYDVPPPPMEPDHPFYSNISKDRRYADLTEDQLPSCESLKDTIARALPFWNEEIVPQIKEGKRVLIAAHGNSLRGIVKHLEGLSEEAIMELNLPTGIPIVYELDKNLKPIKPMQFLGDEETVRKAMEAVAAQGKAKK
Experimental: FIGS. 6A-6E. 3-pHis Antibody Screening. (FIG. 6A) High throughput, slot blot screening of 3-pHis hybridoma subclones. Cell supernatants containing 3-pHis mAbs were screened as described using lysates from E. coli transformed with GST-PGAM. (FIG. 6B) Representative immunoblots using indicated subclones are shown. E. coli lysates identical to those used in ([…]) were treated with and without heating to 95° C. for 10 min to determine if the detected bands were heat-sensitive. Bacterial (FIG. 6B) and mammalian SCS (FIG. 6C) is detected by 3-pHis mAb SC44-8. (FIG. 6C) Mammalian cell lysates from HeLa and FLAG-NME1 293 cells were probed with mAb SC44-8. Phospho-SCS and ACLY, but not PGAM, is recognized by this mAb. (FIG. 6D) SCS H299 (SEQ ID NO: 69) is aligned with ACLY H760 (SEQ ID NO: 68) to highlight amino acids the flanking the pHis site are identical and have a G-pH-A-H-A motif that is different from the pHis site on PGAM at H11 (SEQ ID NO:70). […]
Immunoblotting with anti-pHis antibodies: In general, immunoblotting with anti-pHis antibodies was performed with modifications to standard procedures to help preserve pHis for detection. […] Lysates were clarified by centrifugation (14,000×g for 5-15 min at 4° C.) and analyzed immediately using freshly prepared Bis-Tris polyacrylamide minigels with a modified, pH 8.8 stacking gel and either 10% or 12.5% resolving gels.

Binder | binding result [1] | binding result [2] | binding result [3] | binding result [4] | binding result [5] | binding result [6] | binding result [7] | binding result [8] | binding result [9] | binding result [10] | binding result [11] | binding result [12]
B1 | no binding | no binding | no binding | no binding | no binding | binds | binds | binds | binds |  |  | 
B2 | no binding | no binding | no binding | no binding | no binding |  |  |  |  | binds | binds | no binding
